Drawing on the RNAGym collection of RNA variant scans (doi:10.7554/elife.80360), this text covers self-cleavage for 167 variants.

Sequences and labels used below:
B1: Hammerhead Ribozyme (parent)
chain: ACCGGAUGUGCUUUCCGGUCUGAUGAGUCCGUGAGGACGAAACAG

The series covers variants of B1. Briefly: self-cleavage, relative activity (ratio to wild type); higher = more cleavage; co-transcriptional.
As for U9A C30A, the self-cleavage worked out at 1.
To G5C G10C belongs 0.441; to G17C A40C, 0.328.
As to C2G G25C, the self-cleavage stood at 0.267.
The figure for U32A A42U is 0.373; for A23G A44C it is 0.353.
The figure for G5C G33C is 0.58; for C3U U12A it is 1.04.
A6C G33U: the self-cleavage is 0.579.
As to G5A U13C, the self-cleavage was 1.6.
As for U21C A37U, the self-cleavage is 0.72.
U32C C43G: the self-cleavage came out at 0.388.
Consider A1C U24C, for which the self-cleavage was 0.34.
To U28G A41G belongs 0.421; to U7G G36A, 0.624; to C15A A37G, 0.895.
To A23C G45A belongs 0.302; to G27U C30U, 0.456.
To C2G G35U belongs 0.272; to G33A C38A, 0.608; to C15U U32G, 0.623.
Turning to G8U A41G, the self-cleavage came out at 0.328.
The figure for U12G A42G is 0.356; for U13G C29G it is 0.581; for A37C G45A it is 0.404.
A37C G45U: the self-cleavage came to 0.636.
For the variant U14A A41G, the self-cleavage worked out at 0.28.
To G8U U21C belongs 0.819; to G18C A41U, 0.36.
To U9G A37U belongs 0.611.
For the variant U13G G17C, the self-cleavage came to 0.572.
On to G18A A23C, for which the self-cleavage was 0.355.
The figure for G33C A41G is 0.273; for C38U A40G it is 0.37; for U21G G27U it is 0.296.
For C2A G35C, the self-cleavage came to 0.429.
Consider U24A A42U, for which the self-cleavage came out at 0.354.
Turning to U19A U28C, the self-cleavage came to 0.313.
On to U9C U19C, for which the self-cleavage came to 0.514.
Turning to G18U A42C, the self-cleavage was found to be 0.371.
To G10A G36C belongs 0.843.
Consider G8A G27C, for which the self-cleavage was found to be 0.665.
Turning to G17C G35C, the self-cleavage was 0.403.
The figure for A6C C30G is 0.437; for G33C G35C it is 0.858.
Take G39A A44U: the self-cleavage is 0.342.
The figure for G22U A26G is 0.346; for G31U C43U it is 0.637; for A1U G18C it is 0.39.
To G22A G33C belongs 0.317; to G25C A44U, 0.263; to U14C A40U, 0.354.
To C2A A41C belongs 0.366; to A23C C43A, 0.343.
G4U U24G: the self-cleavage stood at 0.372.
Consider A6U U19C, for which the self-cleavage worked out at 0.47.
The figure for A26C A37G is 0.671; for A37U A40G it is 0.284.
The figure for U21G G39A is 0.354; for U12C A42G it is 0.255.
In the case of C11U U19A, the self-cleavage stood at 0.32.
For the variant C15U G27U, the self-cleavage came out at 0.579.
For A23C A42C, the self-cleavage was 0.31.
As to G4C U32A, the self-cleavage stood at 0.743.
To G27C G39U belongs 0.31.
The figure for U13A G27U is 0.53; for U9C G36C it is 0.82.
G8U A42U: the self-cleavage worked out at 0.344.
For the variant U12C C29G, the self-cleavage worked out at 0.599.
Consider G4U U14A, for which the self-cleavage worked out at 0.469.
To U13G A26C belongs 0.383.
The figure for A6U G27C is 0.552.
The figure for G33A A41C is 0.465.
For A40U A41U, the self-cleavage was 0.439.
To G4C A41G belongs 0.255.
To A1G U32G belongs 1.45.
On to C2U C20U, for which the self-cleavage worked out at 0.797.
Regarding A6G A26C, the self-cleavage worked out at 0.396.
Regarding U28G U32C, the self-cleavage turned out to be 0.664.
G4U U21A: the self-cleavage stood at 0.342.
To G4U U21G belongs 0.325.
As to U32G G36U, the self-cleavage came out at 0.398.
For G22C G36A, the self-cleavage was found to be 0.317.
For the variant G18U G25U, the self-cleavage is 0.324.
To U12A G17A belongs 0.77; to C16G G36C, 0.362; to G4U G8A, 0.47.
To G5C U21C belongs 0.507; to U28C A44U, 0.599; to G5A G22C, 0.315.
The figure for A37G G45C is 0.416; for C11G G36C it is 0.998; for U14A G17U it is 0.564.
In the case of C15A A23G, the self-cleavage stood at 0.428.
To C15U A42U belongs 0.329.
The figure for C15U A42G is 0.265.
As for G8C G45A, the self-cleavage was found to be 0.536.
The figure for A23G A40U is 0.326; for U9C G25U it is 0.309.
To C2G A44C belongs 0.322.
To U19G C20G belongs 0.307.
Regarding U9G C30A, the self-cleavage worked out at 0.677.
For the variant C11U C20A, the self-cleavage came to 0.441.
To U21C U32C belongs 0.96.
The figure for C2G A41C is 0.271; for A1U G45U it is 0.585; for U9C U24C it is 0.94.
The figure for C16U C20A is 0.524.
Turning to C30G A41G, the self-cleavage was found to be 0.349.
The figure for C15G G35C is 0.456; for G10C A34G it is 0.841.
With C16G G39C, the self-cleavage was 0.368.
The figure for C29G C38U is 0.703.
For G8A C20G, the self-cleavage is 0.381.
The figure for U9A C20G is 0.422.
To U9C C43A belongs 0.314; to C11U U24C, 1.08; to G10A G22A, 0.352.
The figure for C3A G5A is 0.319.
Turning to U7A G27U, the self-cleavage is 0.32.
Turning to U7A C30A, the self-cleavage is 1.09.
The figure for U9C G39C is 0.434; for G18C G33A it is 0.765.
The figure for G18C G33U is 0.708.
For the variant G8A G45C, the self-cleavage was determined as 0.512.
Consider A1C G36C, for which the self-cleavage is 0.365.
As to U9G G45A, the self-cleavage was 0.426.
Turning to G39C A41U, the self-cleavage turned out to be 0.305.
With U21A G27C, the self-cleavage worked out at 0.296.
The figure for U9G G17A is 0.456; for C20U A37C it is 0.549; for A44G G45U it is 1.93.
With U7G A41G, the self-cleavage was 0.408.
To C30G A40C belongs 0.425.
Regarding U12G G35U, the self-cleavage was 0.583.
To G18A A26C belongs 0.366; to G17C, 0.575; to C16U A37U, 0.848.
To U9A A44U belongs 0.557; to C15U G36U, 0.521; to G10C G45C, 0.783.
Consider C2U A42G, for which the self-cleavage was 0.467.
With U9G U13G, the self-cleavage was found to be 0.802.
The figure for U24C C29G is 0.605; for G22C it is 0.336; for C3A A42G it is 0.279.
In the case of C3A A42U, the self-cleavage is 0.356.
To G8A U12A belongs 1.09; to G8A U12C, 0.897.
The figure for C3U A34U is 0.947; for C15A C30U it is 1.01.
Turning to U24G U32A, the self-cleavage turned out to be 1.08.
To U13G C38G belongs 0.531.
To C30A G33A belongs 1.21; to G27A A40C, 0.428.
To A34C G35C belongs 0.398; to G8U C38G, 0.887; to C3U U13A, 1.1.
G17U A26U: the self-cleavage came to 0.527.
The figure for G10C A26G is 0.304; for C11G C16U it is 1.23.
Turning to U9A G27C, the self-cleavage is 0.609.
The figure for G33U A41C is 0.375; for A40C A42U it is 0.427; for A6U A40C it is 0.268.
For the variant U13C C43U, the self-cleavage was determined as 0.499.
To C2A U28C belongs 0.417.
